# Assay results reported in US20110059490, “POLYMERASE COMPOSITIONS AND USES” (Fermentas UAB, published 2011).
# Where a chain is given by its changes, count along the chain named.
# T1: Thermococcus sp. DNA polymerase (Thermococcus sp.) (UniProt Q56366)
# T1 sequence: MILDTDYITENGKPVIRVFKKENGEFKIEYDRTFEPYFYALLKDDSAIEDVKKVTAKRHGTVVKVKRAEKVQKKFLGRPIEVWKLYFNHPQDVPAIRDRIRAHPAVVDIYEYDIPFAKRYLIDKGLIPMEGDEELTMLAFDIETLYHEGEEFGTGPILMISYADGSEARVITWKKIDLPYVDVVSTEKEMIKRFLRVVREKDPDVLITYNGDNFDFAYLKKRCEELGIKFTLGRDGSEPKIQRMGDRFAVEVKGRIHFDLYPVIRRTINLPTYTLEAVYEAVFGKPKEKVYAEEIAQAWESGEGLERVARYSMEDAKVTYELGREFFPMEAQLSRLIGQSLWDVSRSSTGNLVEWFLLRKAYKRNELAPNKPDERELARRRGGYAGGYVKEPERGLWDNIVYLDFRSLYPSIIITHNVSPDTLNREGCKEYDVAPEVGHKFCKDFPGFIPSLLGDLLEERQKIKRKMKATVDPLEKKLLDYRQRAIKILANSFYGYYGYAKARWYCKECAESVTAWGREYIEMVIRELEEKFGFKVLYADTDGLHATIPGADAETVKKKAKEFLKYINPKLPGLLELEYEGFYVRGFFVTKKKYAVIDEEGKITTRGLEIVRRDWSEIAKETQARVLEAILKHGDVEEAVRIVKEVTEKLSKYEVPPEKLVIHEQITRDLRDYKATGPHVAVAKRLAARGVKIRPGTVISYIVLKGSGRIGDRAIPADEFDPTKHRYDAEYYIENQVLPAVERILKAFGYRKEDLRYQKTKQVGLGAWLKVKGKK
# T2: Thermococcus sp. DNA polymerase R671S/K677S/K712S R671S,K677S,K712S (Thermococcus sp.) (UniProt Q56366)
# T2 sequence: T1 sequence with R460S, K466S, K501S
# B1: 24/44 nt template-primer duplex (dsDNA)
# DNA 1: TTTTAGCCGCTAGAGTCGACCTGC
# DNA 2: GGAGACAAGCTTGTATGCCTGCAGGTCGACTCTAGCGGCTAAAA
# What was measured:
# [1] = molecular target: T1, Thermococcus sp. DNA polymerase (Thermococcus sp.); assay: EMSA; conditions: EMSA as for Taq, 1x TAE with 2 mM EDTA
# [2] = molecular target: T2, Thermococcus sp. DNA polymerase R671S/K677S/K712S R671S,K677S,K712S (Thermococcus sp.); assay: EMSA; conditions: EMSA as for Taq, 1x TAE with 2 mM EDTA
# [3] = molecular target: Thermococcus sp. DNA polymerase R671E/K677E R671E,K677E (Thermococcus sp.) (UniProt Q56366); assay: EMSA; conditions: EMSA as for Taq, 1x TAE with 2 mM EDTA
# [4] = molecular target: Thermococcus sp. DNA polymerase (R671S/K677S/K712S)/N210D R671S,K677S,K712S,N210D (Thermococcus sp.) (UniProt Q56366); assay: EMSA; conditions: EMSA as for Taq, 1x TAE with 2 mM EDTA
# [5] = molecular target: Thermococcus sp. DNA polymerase R671E/K677E/K712E R671E,K677E,K712E (Thermococcus sp.) (UniProt Q56366); assay: EMSA; conditions: EMSA as for Taq, 1x TAE with 2 mM EDTA
# [6] = molecular target: Thermococcus sp. DNA polymerase (R671E/K677E/K712E)/N210D R671E,K677E,K712E,N210D (Thermococcus sp.) (UniProt Q56366); assay: EMSA; conditions: EMSA as for Taq, 1x TAE with 2 mM EDTA
# [7] = molecular target: T3, Taq DNA polymerase (K540C/H784C)/R25S (UniProt P19821 P19821:1-832, K540C,H784C,R25S); assay: EMSA; 1x TAE with 2 mM EDTA, pH 8.3, 10% glycerol; conditions: tags: Fermentas; label: 5'-33P on 24 nt strand; 24 nt primer annealed to 44 nt template, 20 nt 5' template overhang
# T3 sequence (P19821 whole entry R25S/K540C/H784C, one chain of several): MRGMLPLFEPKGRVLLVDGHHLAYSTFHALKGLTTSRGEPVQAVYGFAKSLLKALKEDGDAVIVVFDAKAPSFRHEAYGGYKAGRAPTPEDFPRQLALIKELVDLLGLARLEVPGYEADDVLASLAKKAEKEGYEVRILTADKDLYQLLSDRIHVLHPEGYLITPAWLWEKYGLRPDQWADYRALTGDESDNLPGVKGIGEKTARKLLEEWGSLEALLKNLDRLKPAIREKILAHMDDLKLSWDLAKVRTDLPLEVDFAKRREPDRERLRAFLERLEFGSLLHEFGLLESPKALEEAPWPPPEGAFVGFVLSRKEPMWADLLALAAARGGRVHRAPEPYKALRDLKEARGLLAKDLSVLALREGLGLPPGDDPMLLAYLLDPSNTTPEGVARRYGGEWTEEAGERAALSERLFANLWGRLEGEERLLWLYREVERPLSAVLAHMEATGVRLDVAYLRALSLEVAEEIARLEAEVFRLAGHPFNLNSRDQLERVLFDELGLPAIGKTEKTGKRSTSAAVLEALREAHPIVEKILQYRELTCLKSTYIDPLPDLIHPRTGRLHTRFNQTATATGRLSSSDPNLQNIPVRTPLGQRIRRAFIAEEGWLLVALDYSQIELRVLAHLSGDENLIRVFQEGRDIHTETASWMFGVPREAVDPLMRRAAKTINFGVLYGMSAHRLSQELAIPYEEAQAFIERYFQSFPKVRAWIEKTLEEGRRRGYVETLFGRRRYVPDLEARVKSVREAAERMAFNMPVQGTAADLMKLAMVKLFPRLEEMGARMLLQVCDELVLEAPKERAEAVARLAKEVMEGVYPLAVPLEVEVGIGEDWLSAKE
# Description: (§1) Affinity of Taq DNA polymerase (FIG. 7A) and its mutants (FIG. 7B-J) for double-stranded DNA (template-primer duplex) was analyzed by electrophoretic mobility shift assays (EMSA) as previously described (Lagunavicius et al. (2003) J. Mol. Biol. 326: 1051-1064) except that 1 nM of 24*/44 nt duplex (* indicates ³³P label in 5′-terminus of 24 nt oligonucleotide) formed by annealing of 5′-[…]-3′ (24 nt) and 5′-[…]-3′ (44 nt) and 0, 1, 2, 5, 10, 20, 50, 100, 200, 500, 1000 nM of the proteins were mixed in 1×TAE buffer (40 mM Tris-acetate, pH8.3 at 25° C.; 2 mM EDTA) supplemented with 10% glycerol and electrophoresis was performed in 12% PAAG. The gels were analyzed by Cyclone Storage Phosphor System and OptiQuant™ Image Analysis Software (Packard Instruments) and GraphPad Prism version 4.03 Software (GraphPad Software, Inc.) (FIG. 7).
# (§2) Affinity of Taq DNA polymerase (FIG. 8A) and its mutants (FIG. 8B-G) for single-stranded DNA (primer) was analyzed as described in Example 7, except that 5′-labeled 24 nt oligonucleotide (5′-[…]) was used instead of 24*/44 nt duplex (FIG. 8).
# [8] = molecular target: T4, Taq DNA polymerase R536C/K540C/D610A/H784C (UniProt P19821 P19821:1-832, R536C,K540C,D610A,H784C); assay: EMSA; 1x TAE with 2 mM EDTA, pH 8.3, 10% glycerol; conditions: tags: Fermentas; label: 5'-33P on 24 nt strand; 24 nt primer annealed to 44 nt template, 20 nt 5' template overhang
# T4 sequence (P19821 whole entry R536C/K540C/D610A/H784C, one chain of several): as the sequence (P19821 whole entry R25S/K540C/H784C, one chain of several) above, with S25R, R536C, D610A counted along it
# Description: as §1, §2
# [9] = molecular target: T5, Taq DNA polymerase I532T/R536C/K540C/H784C (UniProt P19821 P19821:1-832, I532T,R536C,K540C,H784C); assay: EMSA; 1x TAE with 2 mM EDTA, pH 8.3, 10% glycerol; conditions: tags: Fermentas; label: 5'-33P on 24 nt strand; 24 nt primer annealed to 44 nt template, 20 nt 5' template overhang
# T5 sequence (P19821 whole entry I532T/R536C/K540C/H784C, one chain of several): as the sequence (P19821 whole entry R25S/K540C/H784C, one chain of several) above, with S25R, I532T, R536C counted along it
# Description: as §1, §2
# [10] = molecular target: T6, Taq DNA polymerase N485S/R536C/K540C/H784C (UniProt P19821 P19821:1-832, N485S,R536C,K540C,H784C); assay: EMSA; 1x TAE with 2 mM EDTA, pH 8.3, 10% glycerol; conditions: tags: Fermentas; label: 5'-33P on 24 nt strand; 24 nt primer annealed to 44 nt template, 20 nt 5' template overhang
# T6 sequence (P19821 whole entry N485S/R536C/K540C/H784C, one chain of several): as the sequence (P19821 whole entry R25S/K540C/H784C, one chain of several) above, with S25R, N485S, R536C counted along it
# Description: as §1, §2
# [11] = molecular target: Taq DNA polymerase K540C/H784C (UniProt P19821 P19821:1-832, K540C,H784C); assay: EMSA; 1x TAE with 2 mM EDTA, pH 8.3, 10% glycerol; conditions: tags: Fermentas
# Taq DNA polymerase K540C/H784C, sequence (P19821 whole entry K540C/H784C, one chain of several): as the sequence (P19821 whole entry R25S/K540C/H784C, one chain of several) above, with S25R counted along it
# Description: as §1, §2
# [12] = molecular target: Taq DNA polymerase (K540C/H784C)/Y81F (UniProt P19821 P19821:1-832, K540C,H784C,Y81F); assay: EMSA; 1x TAE with 2 mM EDTA, pH 8.3, 10% glycerol; conditions: tags: Fermentas
# Taq DNA polymerase (K540C/H784C)/Y81F, sequence (P19821 whole entry Y81F/K540C/H784C, one chain of several): as the sequence (P19821 whole entry R25S/K540C/H784C, one chain of several) above, with S25R, Y81F counted along it
# Description: as §1, §2
# [13] = molecular target: Taq DNA polymerase E491G/R536C/K540C/H784C (UniProt P19821 P19821:1-832, E491G,R536C,K540C,H784C); assay: EMSA; 1x TAE with 2 mM EDTA, pH 8.3, 10% glycerol; conditions: tags: Fermentas
# Taq DNA polymerase E491G/R536C/K540C/H784C, sequence (P19821 whole entry E491G/R536C/K540C/H784C, one chain of several): as the sequence (P19821 whole entry R25S/K540C/H784C, one chain of several) above, with S25R, E491G, R536C counted along it
# Description: as §1, §2
# [14] = molecular target: Taq DNA polymerase (R536C/K540C/D610A/H784C)/(Y81F/G187A) (UniProt P19821 P19821:1-832, R536C,K540C,D610A,H784C,Y81F,G187A); assay: EMSA; 1x TAE with 2 mM EDTA, pH 8.3; above highest tested 1000 nM; conditions: tags: Fermentas
# Taq DNA polymerase (R536C/K540C/D610A/H784C)/(Y81F/G187A), sequence (P19821 whole entry Y81F/G187A/R536C/K540C/D610A/H784C, one chain of several): as the sequence (P19821 whole entry R25S/K540C/H784C, one chain of several) above, with S25R, Y81F, G187A, R536C, D610A counted along it
# Description: as §1, §2
# [15] = molecular target: Taq DNA polymerase (I532T/R536C/K540C/H784C)/(R25S/Y81F/G187A) (UniProt P19821 P19821:1-832, I532T,R536C,K540C,H784C,R25S,Y81F,G187A); assay: as above; conditions: tags: Fermentas
# Taq DNA polymerase (I532T/R536C/K540C/H784C)/(R25S/Y81F/G187A), sequence (P19821 whole entry R25S/Y81F/G187A/I532T/R536C/K540C/H784C, one chain of several): as the sequence (P19821 whole entry R25S/K540C/H784C, one chain of several) above, with Y81F, G187A, I532T, R536C counted along it
# Description: as §1, §2
# [16] = molecular target: Taq DNA polymerase (UniProt P19821 P19821:1-832); assay: EMSA; 1x TAE with 2 mM EDTA, pH 8.3, 10% glycerol; conditions: tags: recombinant, Fermentas; label: 5'-33P
# Taq DNA polymerase, sequence (P19821 whole entry, one chain of several): as the sequence (P19821 whole entry R25S/K540C/H784C, one chain of several) above, with S25R, C540K, C784H counted along it
# Description: as §1, §2
# [17] = molecular target: T6, Taq DNA polymerase …; assay: EMSA; 1x TAE with 2 mM EDTA, pH 8.3; tighter than WT; conditions: tags: Fermentas; label: 5'-33P
# [18] = molecular target: T3, Taq DNA polymerase (K540C/H784C)/R25S; assay: EMSA; 1x TAE with 2 mM EDTA, pH 8.3; above highest tested 1000 nM; conditions: tags: Fermentas; label: 5'-33P
# Description: as §1, §2
# [19] = molecular target: T4, Taq DNA polymerase …; assay: as above; conditions: tags: Fermentas; label: 5'-33P
# Description: as §1, §2
# [20] = molecular target: T5, Taq DNA polymerase …; assay: as above; conditions: tags: Fermentas; label: 5'-33P
# Description: as §1, §2
# [21] = label: 5'-33P on 24 nt strand, 24 nt primer annealed to 44 nt template, 20 nt 5' template overhang
molecule,measurement,setting,value
TTTTAGCCGCTAGAGTCGACCTGC [24 nt primer],Kd,[1],52 nM
same,Kd,[2],310 nM
same,Kd,[3],730 nM
same,Kd,[4],440 nM
same,Kd,[5],740 nM
same,Kd,[6],2300 nM
TTTTAGCCGCTAGAGTCGACCTGC / GGAGACAAGCTTGTATGCCTGCAGGTCGACTCTAGCGGCTAAAA [24/44 nt template-primer duplex],Kd,[1],2.8 nM
same,Kd,[2],110 nM
same,Kd,[3],240 nM
same,Kd,[4],190 nM
same,Kd,[5],190 nM
same,Kd,[6],470 nM
B1,Kd,[7],56 nM
same,Kd,[8],320 nM
same,Kd,[9],990 nM
same,Kd,[10],32 nM
same,Kd,[11]; [21],25 nM
same,Kd,[12]; [21],28 nM
same,Kd,[13]; [21],200 nM
same,Kd,[14]; [21],2200 nM
same,Kd,[15]; [21],16 µM
TTTTAGCCGCTAGAGTCGACCTGC (ssDNA) [24 nt primer],Kd,[16],79 nM
same,Kd,[11]; label: 5'-33P,460 nM
same,Kd,[12]; label: 5'-33P,350 nM
same,Kd,[13]; label: 5'-33P,530 nM
same,Kd,[17],23 nM
same,Kd,[14]; label: 5'-33P,3700 nM
same,Kd,[18],2700 nM
same,Kd,[19],2000 nM
same,Kd,[20],5.2 µM
same,Kd,[15]; label: 5'-33P,7.7 µM
